The values below come from US12226546 (University of California, dated 2025).

Experiment [1] addresses T1, FITC labeled (M^OA)155E60 (not fully specified; L-methionine sulfoxide (M^O) residues in the statistical M^O/A segment; fluorescein isothiocyanate (FITC) conjugated onto the N-terminal amine).
T1 construct: Fluorescently labeled form of (M^OA)155E60 used for confocal microscopy; also called E labeled (FITC)
T1 chain: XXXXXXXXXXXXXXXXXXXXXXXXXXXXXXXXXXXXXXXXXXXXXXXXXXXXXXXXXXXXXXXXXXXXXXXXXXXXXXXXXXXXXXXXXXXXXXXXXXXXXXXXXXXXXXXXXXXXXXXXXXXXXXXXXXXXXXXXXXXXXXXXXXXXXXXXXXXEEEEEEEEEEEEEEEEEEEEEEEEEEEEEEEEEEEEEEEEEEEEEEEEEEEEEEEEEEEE
As to the kind of experiment: laser scanning confocal microscopy of fluorescently labeled hydrogel, 3.0 wt % in PBS. From the text:
Laser scanning confocal microscopy (LSCM) was then used to visualize the labeled chains and the hydrogel network (FIG. 3A-3B).
Example 8—Laser Scanning Confocal Microscopy (LSCM) of Fluorescently Labeled Hydrogels LSCM images of hydrogels (3.0 wt % in PBS) were taken on a Leica TCS-SP1 MP-Inverted Confocal and Multiphoton Microscope equipped with an argon laser (476 and 488 nm blue lines), a diode (DPSS) laser (561 nm yellow-green line), and a helium-neon laser (633 nm far red line). Fluorescently labeled hydrogel samples were visualized on glass slides with a spacer between the slide and the cover slip (double-sided tape) allowing the self-assembled structures to be minimally disturbed during focusing. A Z-slice thickness of 0.78 µm was used. Sample imaging was performed at the Advanced Light Microscopy/Spectroscopy Center (ALMS) at the UCLA California NanoSystems Institute (CNSI).

The target of experiment [2] is T2, poly(L-methionine sulfoxide0.88-stat-L-alanine0.12)155-block-poly(L-glutamate)60, (M^OA)155E60 (not fully specified; L-methionine sulfoxide (M^O) residues in the statistical M^O/A segment (ca. 88 mol % M^O, 12 mol % Ala)).
T2 chain: T1 chain
Briefly: mixing of equal volumes of 5.0 wt % solutions in 1xPBS; polyion complex hydrogel formation.

Experiment [3] has as its target T3, poly(L-methionine sulfoxide-stat-L-alanine)155-block-poly(L-glutamate-Na)30, (M^OA)155E30 (not fully specified; L-methionine sulfoxide (M^O) residues in the statistical M^O/A segment (ca. 88 mol % M^O, 12 mol % Ala)).
T3 chain: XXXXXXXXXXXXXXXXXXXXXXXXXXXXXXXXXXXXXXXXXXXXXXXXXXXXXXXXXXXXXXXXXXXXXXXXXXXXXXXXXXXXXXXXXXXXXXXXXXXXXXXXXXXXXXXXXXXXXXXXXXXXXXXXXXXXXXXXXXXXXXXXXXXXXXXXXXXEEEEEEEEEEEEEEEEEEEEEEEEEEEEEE
The description is as above.

Experiment [4] addresses T4, poly(L-methionine sulfoxide-stat-L-alanine)155-block-poly(L-glutamate-Na)90, (M^OA)155E90 (not fully specified; L-methionine sulfoxide (M^O) residues in the statistical M^O/A segment (ca. 88 mol % M^O, 12 mol % Ala)).
T4 chain: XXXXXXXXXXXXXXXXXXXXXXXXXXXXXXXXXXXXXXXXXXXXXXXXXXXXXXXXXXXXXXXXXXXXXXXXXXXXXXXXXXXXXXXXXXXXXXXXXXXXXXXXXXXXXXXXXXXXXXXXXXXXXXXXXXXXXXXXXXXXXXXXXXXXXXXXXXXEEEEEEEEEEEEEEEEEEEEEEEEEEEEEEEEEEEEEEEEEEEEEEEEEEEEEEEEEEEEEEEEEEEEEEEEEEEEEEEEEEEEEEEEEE
Briefly: mixing of length-mismatched copolypeptides at E to K stoichiometry; hydrogel formation.

Experiment [5] deals with T5, poly(L-methionine sulfoxide-stat-L-alanine)155-block-poly(L-glutamate-Na)120, (M^OA)155E120 (not fully specified; L-methionine sulfoxide (M^O) residues in the statistical M^O/A segment (ca. 88 mol % M^O, 12 mol % Ala)).
T5 chain: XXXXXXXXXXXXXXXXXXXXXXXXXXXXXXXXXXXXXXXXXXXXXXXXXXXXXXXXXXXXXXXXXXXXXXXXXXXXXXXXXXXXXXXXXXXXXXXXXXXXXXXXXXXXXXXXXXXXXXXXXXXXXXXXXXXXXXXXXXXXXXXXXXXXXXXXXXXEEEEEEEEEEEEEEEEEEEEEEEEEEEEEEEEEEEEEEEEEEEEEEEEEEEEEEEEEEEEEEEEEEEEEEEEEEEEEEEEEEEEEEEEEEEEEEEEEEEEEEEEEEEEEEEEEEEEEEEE
Briefly: mixing of equal volumes of 5.0 wt % solutions in 1xPBS; polyion complex hydrogel formation.

Experiment [6] concerns the target T4, poly(L-methionine …). The experiment is described as above.

B1: TRITC labeled (M^OA)155K60 (other)
chain: XXXXXXXXXXXXXXXXXXXXXXXXXXXXXXXXXXXXXXXXXXXXXXXXXXXXXXXXXXXXXXXXXXXXXXXXXXXXXXXXXXXXXXXXXXXXXXXXXXXXXXXXXXXXXXXXXXXXXXXXXXXXXXXXXXXXXXXXXXXXXXXXXXXXXXXXXXXKKKKKKKKKKKKKKKKKKKKKKKKKKKKKKKKKKKKKKKKKKKKKKKKKKKKKKKKKKKK
modifications: X: randomised place (mixture); also: positions 1-155 statistical Met(O)/Ala copolymer, polydisperse, nominal block lengths, TRITC on an unspecified Lys side chain, about 1 probe per 5 chains, Lys as HCl salt
notes: Fluorescently labeled form of (M^OA)155K60 used for confocal microscopy; also called K labeled (TRITC)
As for B1, the binding result in experiment [1] is reported as “binds”.

B2: poly(L-methionine sulfoxide0.88-stat-L-alanine0.12)155-block-poly(L-lysine)60, (M^OA)155K60 (other)
chain: B1 chain
modifications: not fully specified; X: randomised place (mixture); also: X1-155: Met(O) or Ala, statistical (ca. 88 mol % Met(O), 12 mol % Ala), HCl salt
Turning to B2, the binding result in experiment [2] is on record as “binds”.

B3: poly(L-methionine sulfoxide-stat-L-alanine)155-block-poly(L-lysine-HCl)30, (M^OA)155K30 (other)
chain: XXXXXXXXXXXXXXXXXXXXXXXXXXXXXXXXXXXXXXXXXXXXXXXXXXXXXXXXXXXXXXXXXXXXXXXXXXXXXXXXXXXXXXXXXXXXXXXXXXXXXXXXXXXXXXXXXXXXXXXXXXXXXXXXXXXXXXXXXXXXXXXXXXXXXXXXXXXKKKKKKKKKKKKKKKKKKKKKKKKKKKKKK
modifications: not fully specified; L-methionine sulfoxide (M^O) residues in the statistical M^O/A segment (ca. 88 mol % M^O, 12 mol % Ala)
For B3, the binding result in experiment [3] and in experiment [4] was “binds” each time.

B4: poly(L-methionine sulfoxide-stat-L-alanine)155-block-poly(L-lysine-HCl)120, (M^OA)155K120 (other)
chain: XXXXXXXXXXXXXXXXXXXXXXXXXXXXXXXXXXXXXXXXXXXXXXXXXXXXXXXXXXXXXXXXXXXXXXXXXXXXXXXXXXXXXXXXXXXXXXXXXXXXXXXXXXXXXXXXXXXXXXXXXXXXXXXXXXXXXXXXXXXXXXXXXXXXXXXXXXXKKKKKKKKKKKKKKKKKKKKKKKKKKKKKKKKKKKKKKKKKKKKKKKKKKKKKKKKKKKKKKKKKKKKKKKKKKKKKKKKKKKKKKKKKKKKKKKKKKKKKKKKKKKKKKKKKKKKKKKK
modifications: X: randomised place (mixture); also: X1-155: Met(O) or Ala, statistical (ca. 88 mol % Met(O)), polydisperse, lengths nominal, HCl salt
As for B4, the binding result in experiment [5] is given as “binds”.

B5: poly(L-methionine sulfoxide-stat-L-alanine)155-block-poly(L-lysine-HCl)90, (M^OA)155K90 (other)
chain: XXXXXXXXXXXXXXXXXXXXXXXXXXXXXXXXXXXXXXXXXXXXXXXXXXXXXXXXXXXXXXXXXXXXXXXXXXXXXXXXXXXXXXXXXXXXXXXXXXXXXXXXXXXXXXXXXXXXXXXXXXXXXXXXXXXXXXXXXXXXXXXXXXXXXXXXXXXKKKKKKKKKKKKKKKKKKKKKKKKKKKKKKKKKKKKKKKKKKKKKKKKKKKKKKKKKKKKKKKKKKKKKKKKKKKKKKKKKKKKKKKKKK
modifications: not fully specified; X: randomised place (mixture); also: X1-155: Met(O) or Ala, statistical (ca. 88 mol % Met(O)), HCl salt
As to B5, the binding result in experiment [6] was “binds”.
